# Laboratory results published in patent publication US20140100120, “METHODS OF X-APTAMER GENERATION AND COMPOSITIONS […]” (AM Biotechnologies, LLC, published 2014).
# Target: CD44 hyaluronic acid binding domain (CD44-HABD) (UniProt P16070 P16070:20-178)
# Assay: filter; 20 mM Tris pH 8.0, 150 mM NaCl, RT
# Conditions: label: biotin; hairpin (predicted)
# Method: The equilibrium binding constants of selected XAs for CD44-HABD were determined by a filter binding assay. The biotinylated XAs (1 nM) were incubated with varying concentrations of CD44-HABD in 50 μL of 20 mM Tris, pH 8.0, 150 mM NaCl for 40 min at room temperature and then transferred to a 96-well dot-blot apparatus and filtered under vacuum onto nitrocellulose membranes, which retain the CD44-HABD along with any bound XAs. The amount of biotinylated XA retained at each spot was determined by chemiluminescent detection using the Chemiluminescent Nucleic Acid Detection Module (Thermo Scientific) following the manufacturer's instructions. The chemiluminescent signals were collected on a Chemimager (Alpha Innotech). Image analysis and quantification of spot intensities were performed using ImageJ (version 1.42q). Binding analysis was based on the spot intensities on the nitrocellulose membranes with subtraction of background spot intensity due to the buffer effect from all the data points. Saturation binding curves were generated by using GraphPad Prism with curve fits assuming a single binding site. The NH₂ XA column lists KDs for XAs where X=amino-dU. The ADDA XA column lists KDs for XAs where X=ADDA-dU.
# The equilibrium binding constants of the small constructs were determined by the filter binding assay. The derived equilibrium binding constants of the above small XA constructs are shown below in Table 4.
# Chain of CD44 hyaluronic acid binding domain (CD44-HABD) (P16070 20-178, one chain of several): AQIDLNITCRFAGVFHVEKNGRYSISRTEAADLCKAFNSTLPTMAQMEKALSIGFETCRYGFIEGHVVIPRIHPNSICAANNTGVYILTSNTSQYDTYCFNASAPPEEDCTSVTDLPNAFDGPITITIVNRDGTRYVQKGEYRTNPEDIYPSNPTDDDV
row,Binder,Kd [nM]
1,"CTGTTAGGGAACCAAGACGA (ssDNA, fully monothioate PS; X=amino-dU [n positions 2,4 = modified dU]) [Motif 2 thio NH2]",48
2,"CTGTTAGGGAACCAAGACGA (ssDNA, X=amino-dU; phosphodiester [n positions 2,4 = modified dU]) [Motif 2 phospho NH2]",43.1
3,"CTGTTAGGGAACCAAGACGA (ssDNA, fully monothioate PS; X=ADDA-dU [n positions 2,4 = modified dU]) [Motif 2 thio ADDA]",15.5
4,"CTGTTAGGGAACCAAGACGA (ssDNA, X=ADDA-dU; phosphodiester [n positions 2,4 = modified dU]) [Motif 2 phospho ADDA]",2

# Same assay, conditions: label: biotin; stem-loop (predicted)
row,Binder,Kd [nM]
1,"GATCTGCAATGTAACCATAGACA (ssDNA, fully monothioate PS; X=ADDA-dU [n positions 10 = modified dU]) [Motif 4 thio ADDA]",13.6
2,"GATCTGCAATGTAACCATAGACA (ssDNA, fully monothioate PS; X=amino-dU [n positions 10 = modified dU]) [Motif 4 thio NH2]",35.4
3,"GCCTGCAAGACGTCCATAGACAC (ssDNA, fully monothioate PS; X=ADDA-dU [n positions 13 = modified dU]) [Motif 3 thio ADDA]",64.8
4,"GATCTGCAATGTAACCATAGACA (ssDNA, X=ADDA-dU; phosphodiester [n positions 10 = modified dU]) [Motif 4 phospho ADDA]",2.1
5,"GCCTGCAAGACGTCCATAGACAC (ssDNA, fully monothioate PS; X=amino-dU [n positions 13 = modified dU]) [Motif 3 thio NH2]",81.2
6,"GCCTGCAAGACGTCCATAGACAC (ssDNA, X=amino-dU; phosphodiester [n positions 13 = modified dU]) [Motif 3 phospho NH2]",27.6
7,"GATCTGCAATGTAACCATAGACA (ssDNA, X=amino-dU; phosphodiester [n positions 10 = modified dU]) [Motif 4 phospho NH2]",6.8
8,"AGATACAGTAAACGTCCATAGACAC (ssDNA, fully monothioate PS; X=amino-dU [n positions 4,15 = modified dU]) [Motif 5 thio NH2]",18
9,"AGATACAGTAAACGTCCATAGACAC (ssDNA, X=ADDA-dU; phosphodiester [n positions 4,15 = modified dU]) [Motif 5 phospho ADDA]",3.9
10,"AGATACAGTAAACGTCCATAGACAC (ssDNA, X=amino-dU; phosphodiester [n positions 4,15 = modified dU]) [Motif 5 phospho NH2]",13.8
11,"AGATACAGTAAACGTCCATAGACAC (ssDNA, fully monothioate PS; X=ADDA-dU [n positions 4,15 = modified dU]) [Motif 5 thio ADDA]",10.1
12,"GCCTGCAAGACGTCCATAGACAC (ssDNA, X=ADDA-dU; phosphodiester [n positions 13 = modified dU]) [Motif 3 phospho ADDA]",19.5
